Results published in US7884189B2, “Carboxyltransferase domain of acetyl-CoA carboxylase” (The Trustees of Columbia University in the City of new York, priority 2003, dated 2011).
Residue numbers refer to the chain shown, from its start. In names and notes the source's numbering stands. Like-named read-outs stand apart in the source and are kept apart here.

Tests used:
CT domain of yeast ACC = molecular target: T1, CT domain of yeast ACC (Saccharomyces cerevisiae, UniProt Q00955); experiment: CT domain enzyme kinetic assay, inhibition (decarboxylation of malonyl-CoA coupled to citrate synthase and malate dehydrogenase); format: biochemical, S. cerevisiae
T1 construct: made in house; host or cells: E. coli (pET24d)
T1 sequence (Q00955 1429-2233): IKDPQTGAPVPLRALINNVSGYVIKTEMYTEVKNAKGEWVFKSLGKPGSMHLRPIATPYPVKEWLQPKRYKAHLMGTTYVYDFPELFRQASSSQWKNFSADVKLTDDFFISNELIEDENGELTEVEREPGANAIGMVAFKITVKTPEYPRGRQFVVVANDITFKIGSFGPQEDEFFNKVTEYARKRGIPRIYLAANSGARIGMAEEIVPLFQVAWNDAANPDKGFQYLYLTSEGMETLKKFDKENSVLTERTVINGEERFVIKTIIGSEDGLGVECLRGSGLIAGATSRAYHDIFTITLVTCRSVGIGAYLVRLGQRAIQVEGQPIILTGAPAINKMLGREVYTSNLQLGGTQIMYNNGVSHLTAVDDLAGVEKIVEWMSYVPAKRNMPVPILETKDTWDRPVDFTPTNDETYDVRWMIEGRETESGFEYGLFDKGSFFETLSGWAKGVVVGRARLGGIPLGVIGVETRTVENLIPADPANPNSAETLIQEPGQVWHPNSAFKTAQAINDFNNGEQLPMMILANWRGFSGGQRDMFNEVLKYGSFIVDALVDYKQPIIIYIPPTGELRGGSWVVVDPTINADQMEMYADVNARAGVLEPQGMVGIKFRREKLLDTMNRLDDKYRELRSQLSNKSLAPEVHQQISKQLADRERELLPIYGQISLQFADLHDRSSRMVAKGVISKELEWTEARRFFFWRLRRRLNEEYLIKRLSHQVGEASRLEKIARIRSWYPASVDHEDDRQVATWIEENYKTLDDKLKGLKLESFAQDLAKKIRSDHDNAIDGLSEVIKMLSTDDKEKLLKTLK
Excerpt: The CT domain can catalyze the decarboxylation of malonyl-CoA to produce acetyl-CoA in the presence of biotin methyl ester. Thus, the enzyme kinetic assays monitor the production of acetyl-CoA by coupling it to citrate synthase and malate dehydrogenase, which ultimately lead to the reduction of NAD^+.
Enzyme kinetic assays. The CT domain can catalyze the decarboxylation of malonyl-CoA to produce acetyl-CoA in the presence of biotin methyl ester. The kinetic assays monitored the production of acetyl-CoA by coupling it to citrate synthase and malate dehydronase, which ultimately lead to the reduction of NAD^+ (Guchhait et al., 1974, J. Biol. Chem. 9:6633-6645).

mammalian ACC2 = details: cited from earlier work
ACC = details: cited from earlier work
[1] = molecular target: T2, L1705I, V1967I and L1705I/V1967I mutants of the yeast CT domain (Saccharomyces cerevisiae, UniProt Q00955); experiment: CT domain enzyme kinetic assay, inhibition of mutant CT domains; format: biochemical, S. cerevisiae; details: single and double mutants; malonyl-CoA 750 μM, mutants at 20 μM
T2 construct: fused on or other part: C-terminal His-tag (pET24d)
T2 sequence (Q00955 whole entry L1705I/V1967I, form open, the tested form may be a part): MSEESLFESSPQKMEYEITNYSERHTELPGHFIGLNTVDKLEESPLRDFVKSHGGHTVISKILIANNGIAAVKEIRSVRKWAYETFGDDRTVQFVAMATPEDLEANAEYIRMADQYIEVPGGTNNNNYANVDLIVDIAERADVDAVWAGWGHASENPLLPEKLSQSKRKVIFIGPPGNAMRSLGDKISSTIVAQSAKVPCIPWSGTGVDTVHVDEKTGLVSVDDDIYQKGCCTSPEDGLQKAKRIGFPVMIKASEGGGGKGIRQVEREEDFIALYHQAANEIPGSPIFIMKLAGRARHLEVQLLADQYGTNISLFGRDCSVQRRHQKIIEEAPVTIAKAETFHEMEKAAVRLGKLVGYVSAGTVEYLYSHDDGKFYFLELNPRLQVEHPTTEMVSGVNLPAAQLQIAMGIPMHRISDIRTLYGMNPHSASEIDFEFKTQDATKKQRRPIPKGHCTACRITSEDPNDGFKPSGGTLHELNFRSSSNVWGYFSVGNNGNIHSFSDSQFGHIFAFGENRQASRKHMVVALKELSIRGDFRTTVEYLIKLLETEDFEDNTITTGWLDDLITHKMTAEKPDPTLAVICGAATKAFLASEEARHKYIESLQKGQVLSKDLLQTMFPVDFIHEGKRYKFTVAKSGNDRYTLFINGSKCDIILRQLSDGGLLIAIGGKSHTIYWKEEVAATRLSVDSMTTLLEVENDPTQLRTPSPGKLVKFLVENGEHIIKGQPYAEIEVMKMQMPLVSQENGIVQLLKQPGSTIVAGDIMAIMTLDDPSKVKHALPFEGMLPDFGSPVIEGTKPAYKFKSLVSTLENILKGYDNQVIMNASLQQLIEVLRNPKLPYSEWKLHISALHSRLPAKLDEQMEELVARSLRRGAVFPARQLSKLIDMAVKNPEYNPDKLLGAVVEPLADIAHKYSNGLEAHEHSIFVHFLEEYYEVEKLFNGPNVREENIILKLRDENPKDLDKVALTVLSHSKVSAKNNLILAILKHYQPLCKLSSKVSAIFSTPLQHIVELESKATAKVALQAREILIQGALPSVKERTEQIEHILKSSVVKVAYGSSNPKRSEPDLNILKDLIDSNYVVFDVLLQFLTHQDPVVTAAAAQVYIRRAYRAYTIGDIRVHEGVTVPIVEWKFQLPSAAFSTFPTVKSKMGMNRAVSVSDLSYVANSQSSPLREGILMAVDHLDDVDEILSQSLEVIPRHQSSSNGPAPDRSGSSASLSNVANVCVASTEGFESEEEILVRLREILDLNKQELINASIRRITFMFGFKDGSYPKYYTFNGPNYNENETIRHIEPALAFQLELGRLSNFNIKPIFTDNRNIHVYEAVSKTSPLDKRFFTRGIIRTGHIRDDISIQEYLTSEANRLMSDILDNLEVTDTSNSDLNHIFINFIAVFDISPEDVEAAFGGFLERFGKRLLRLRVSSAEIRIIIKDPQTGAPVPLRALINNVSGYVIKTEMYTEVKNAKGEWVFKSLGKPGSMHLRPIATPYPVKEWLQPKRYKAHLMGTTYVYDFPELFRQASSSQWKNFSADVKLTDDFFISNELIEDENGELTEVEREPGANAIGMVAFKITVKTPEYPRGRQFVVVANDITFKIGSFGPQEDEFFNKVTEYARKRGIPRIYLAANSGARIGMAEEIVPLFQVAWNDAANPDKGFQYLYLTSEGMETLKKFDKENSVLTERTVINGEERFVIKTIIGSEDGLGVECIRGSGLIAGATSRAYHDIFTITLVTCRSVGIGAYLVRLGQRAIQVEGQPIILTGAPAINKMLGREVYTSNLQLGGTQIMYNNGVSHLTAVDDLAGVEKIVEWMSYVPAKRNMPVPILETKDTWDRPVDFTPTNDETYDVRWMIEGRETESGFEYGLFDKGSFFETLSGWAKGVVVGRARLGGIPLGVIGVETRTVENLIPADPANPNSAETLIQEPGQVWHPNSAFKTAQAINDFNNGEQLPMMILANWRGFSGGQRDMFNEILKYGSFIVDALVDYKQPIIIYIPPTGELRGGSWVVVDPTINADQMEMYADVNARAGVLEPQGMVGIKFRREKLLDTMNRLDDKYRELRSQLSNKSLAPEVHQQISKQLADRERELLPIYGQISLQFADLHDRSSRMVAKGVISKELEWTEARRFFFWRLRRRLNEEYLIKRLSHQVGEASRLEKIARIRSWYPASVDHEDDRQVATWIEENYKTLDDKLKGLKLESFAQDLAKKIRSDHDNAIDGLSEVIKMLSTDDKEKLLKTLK
Excerpt: (§1) Enzyme kinetic assays. The CT domain can catalyze the decarboxylation of malonyl-CoA to produce acetyl-CoA in the presence of biotin methyl ester. The kinetic assays monitored the production of acetyl-CoA by coupling it to citrate synthase and malate dehydronase, which ultimately lead to the reduction of NAD^+ (Guchhait et al., 1974, J. Biol. Chem. […]). Mutations in the active site were designed based on the structural information. The mutants were made with the QuikChange kit (Stratagene) and sequenced for confirmation. They were purified and assayed kinetically under the same condition as the wild-type protein. The kinetic parameters for each enzyme were obtained by non-linear least-squares fitting to the initial velocity data.
Mutagenesis and kinetic assays. The L1705I and V1967I single-site mutants as well as the L1705I/V1967I double mutant were made with the QuikChange kit (Stratagene), from the expression construct that covers residues 1476-2233. The mutants were sequenced, expressed in E. coli, and purified following the same protocol as that for thewild-type CT domain. […]

[2] = Kinetic parameters of wild-type and mutant yeast CT (reverse reaction, malonyl-CoA to biotin methyl ester); format: biochemical, S. cerevisiae; details: 2.5 μM of the enzyme
Excerpt: as §1
To characterize the functional roles of the conserved residues in the active site, many of them were mutated and the kinetic parameters of the mutants for the reverse reaction, which transfers the carboxyl group of malonyl-CoA to biotin (Table D) were determined. […] Based on the structures of the invention, it is likely that this residue is important for recognizing the carboxyl group of malonyl-CoA, and this is also consistent with the hypothesis that the biotin substrate may be mostly associated with the C domain. Of the charged side chains that interact with the phosphate groups of CoA, mutation of Arg1731 gave rise to a 14-fold increase in the Km for malonyl-CoA (Table D), consistent with the structural observations. On the other hand, mutation of Arg2036 had minimal effects on the enzyme catalysis.
Mutagenesis and kinetic assays. The L1705I and V1967I single-site mutants as well as the L1705I/V1967I double mutant were made with the QuikChange kit (Stratagene), from the expression construct that covers residues 1476-2233. The mutants were sequenced, expressed in E. coli, and purified following the same protocol as that for thewild-type CT domain. The catalytic activity of the CT domain was assayed following protocols described earlier (Guchhait, R. B. et al. (1974) Acetyl coenzyme A carboxylase system from Escherichia coli. Purification and properties of the biotin carboxylase, carboxyltransferase, and carboxyl carrier protein components. J Biol Chem 249, 6633-6645; Zhang et al., 2003). […] The concentration of the malonyl-CoA substrate was kept close to the expected Km, 75 μM for the wild-type enzyme and 750 μM for the mutants. The wild-type enzyme was at 2.5 μM concentration, whereas the mutants were at 20 μM concentration.

[3] = molecular target: the molecule itself; experiment: light scattering in solution (homodimer)

O=C(c1c2ccccc2cc2ccccc12)N1CCC(N2CCC[C@@H](C(=O)N3CCOCC3)C2)CC1 [CP-640186]
Ki (CT domain of yeast ACC; versus malonyl-CoA, about 3 μM of enzyme in the reaction buffer, read-out: Ki): ~4 µM
mode of inhibition (CT domain of yeast ACC; with respect to malonyl-CoA): non-competitive
IC50 (mammalian ACC2): ~0.055 µM

CC(Oc1ccc(Oc2ncc(C(F)(F)F)cc2Cl)cc1)C(=O)SCCNC(=O)CCNC(=O)C(O)C(C)(C)COP(=O)(O)OP(=O)(O)OCC1OC(n2cnc3c(N)ncnc32)C(O)C1OP(=O)(O)O (stereo not drawn) [CoA ester of haloxyfop]
potency relative to haloxyfop (ACC): more potent inhibitor

CC(Oc1ccc(Oc2ncc(C(F)(F)F)cc2Cl)cc1)C(=O)O (stereo not drawn) [haloxyfop]
Ki (CT domain of yeast ACC): ~500 µM
Ki [1]: ~500 µM

E1994Q
Km [2]: 109 ± 5 µM
Vmax [2]: 272 ± 3 ×10^−5 AU/s

E2026Q
Km [2]: 218 ± 24 µM
Vmax [2]: 144 ± 6 ×10^−5 AU/s

R1731S
Km [2]: 909 ± 72 µM
Vmax [2]: 385 ± 10 ×10^−5 AU/s

R1954S
Km [2]: 5100 ± 1200 µM
Vmax [2]: 39 ± 6 ×10^−5 AU/s

R2036E
Km [2]: 41 ± 4 µM
Vmax [2]: 133 ± 3 ×10^−5 AU/s

Y1738F
Km [2]: 53 ± 6 µM
Vmax [2]: 152 ± 3 ×10^−5 AU/s

B1: L1705I/V1967I double mutant of the yeast CT domain (residues 1476-2233) (enzyme)
chain: GSMHLRPIATPYPVKEWLQPKRYKAHLMGTTYVYDFPELFRQASSSQWKNFSADVKLTDDFFISNELIEDENGELTEVEREPGANAIGMVAFKITVKTPEYPRGRQFVVVANDITFKIGSFGPQEDEFFNKVTEYARKRGIPRIYLAANSGARIGMAEEIVPLFQVAWNDAANPDKGFQYLYLTSEGMETLKKFDKENSVLTERTVINGEERFVIKTIIGSEDGLGVECIRGSGLIAGATSRAYHDIFTITLVTCRSVGIGAYLVRLGQRAIQVEGQPIILTGAPAINKMLGREVYTSNLQLGGTQIMYNNGVSHLTAVDDLAGVEKIVEWMSYVPAKRNMPVPILETKDTWDRPVDFTPTNDETYDVRWMIEGRETESGFEYGLFDKGSFFETLSGWAKGVVVGRARLGGIPLGVIGVETRTVENLIPADPANPNSAETLIQEPGQVWHPNSAFKTAQAINDFNNGEQLPMMILANWRGFSGGQRDMFNEILKYGSFIVDALVDYKQPIIIYIPPTGELRGGSWVVVDPTINADQMEMYADVNARAGVLEPQGMVGIKFRREKLLDTMNRLDDKYRELRSQLSNKSLAPEVHQQISKQLADRERELLPIYGQISLQFADLHDRSSRMVAKGVISKELEWTEARRFFFWRLRRRLNEEYLIKRLSHQVGEASRLEKIARIRSWYPASVDHEDDRQVATWIEENYKTLDDKLKGLKLESFAQDLAKKIRSDHDNAIDGLSEVIKMLSTDDKEKLLKTLK
notes: also called mutated yeast CT domain; mutant CT domain; not shown: C-terminal His-tag of the parent pET24d construct
binding result [3]: binds

B2: L1705I (protein)
chain: B1 chain with I492V
modifications: left off: small tags and cut ends
Km [2]: 1340 ± 180 µM
Vmax [2]: 12 ± 0.3 ×10^−5 AU/s
